Laboratory results from patent publication US20110112037A1, “CRYSTAL STRUCTURE” (Heptares Therapeutics Limited BioPark, priority 2008, published 2011).
In brackets after ≈: the same amount, converted by molar mass.

tested on: not listed separately; assay: physchem; assay type: physicochemical; conditions: aqueous buffer

With `CC(C)(C)NCC(O)COc1cccc2[nH]c(C#N)cc12` (stereo not shown) [cyanopindolol] the solubility was 750 µM (≈ 216 µg/mL).

tested on: not listed separately; assay: Thermal stability of β1AR point mutants (Table 3) and of β1-m23 in detergent; assay type: physicochemical, turkey; conditions: β1AR alanine mutants in CL2
Source text: Short-chain detergents, such as nonyl- and octyl-glucosides, are the best choice for crystallisation of small membrane proteins, but β1 was unstable in them and precipitated upon detergent exchange (Warne et al 2003). We therefore expressed β1 in an Escherichia coli expression system (Grisshammer et al) and evolved it into a conformationally thermostabilised form (β1-m23) that is stable even in short-chain detergents (Serrano PNAS). […] The receptor construct that crystallised (FIG. 1) has deletions at the N-terminus, C-terminus and in cytoplasmic loop 3 to remove regions that were predicted to be unstructured (Warne et al 2003). It also contains 8 point mutations, 6 for thermostabilisation (R68^1.59S, M90^2.52V, Y227^5.58A, A282^6.27L, F327^7.38A, F338^7.49M), one for improved expression (C116^3.27L) and one for the removal of a palmitoylation site (C358^8.53A).
The CL2 loop has been proposed to function as the switch enabling G protein activation (Burstein et al 1998) and, from the β1 structure, it is clear that this region also has an important contact to the adjacent highly conserved D^3.49R^3.50Y^3.51 motif in helix 3. […] This is mainly due to the increased distance between the Cα atoms of Arg^3.50 and Glu^6.30 in β1 (10.9 Å) and β2 (11.2 Å) compared with rhodopsin (8.7 Å). There is, however, an intrahelical interaction between Asp^3.49 and […] of the DRY motif in all three […] structures. The helical conformation of CL2 in the β1 structure positions Tyr149^3.89 sufficiently close to Asp138^3.49 of the DRY motif to allow the formation of a H-bond. Supporting evidence for this structural role of Tyr149^3.89 comes from the observation that the Y149A mutation makes β1AR much less thermally stable (Table 3). The equivalent Tyr141^3.60 in both β2 structures is in a cavity between helix 3, 4 and 6, but the biological relevance of this is unclear, due to the perturbations in this region caused by either the T4 lysozyme fusion or by the bound antibody Fab.

Point of comparison: F147A: β1AR point mutant F147A, “Stability (wild type = 100)” value 128. Against it:
- Y149A: β1AR point mutant Y149A, much less thermally stable — lower, 1
- Q150A: β1AR point mutant Q150A — lower, 117
- S145A: β1AR point mutant S145A — lower, 68
- S151A: β1AR point mutant S151A — lower, 117
- P146A: β1AR point mutant P146A — lower, 13
- R148A: β1AR point mutant R148A — lower, 89
- T144A: β1AR point mutant T144A — lower, 72

target: m23 mutant receptor (Meleagris gallopavo, UniProt P07700, A282L/F327A/F338M/M90V/R68S/Y227A); assay: not given; conditions: FIG. 11
Sequence (P07700 whole entry R68S/M90V/Y227A/A282L/F327A/F338M): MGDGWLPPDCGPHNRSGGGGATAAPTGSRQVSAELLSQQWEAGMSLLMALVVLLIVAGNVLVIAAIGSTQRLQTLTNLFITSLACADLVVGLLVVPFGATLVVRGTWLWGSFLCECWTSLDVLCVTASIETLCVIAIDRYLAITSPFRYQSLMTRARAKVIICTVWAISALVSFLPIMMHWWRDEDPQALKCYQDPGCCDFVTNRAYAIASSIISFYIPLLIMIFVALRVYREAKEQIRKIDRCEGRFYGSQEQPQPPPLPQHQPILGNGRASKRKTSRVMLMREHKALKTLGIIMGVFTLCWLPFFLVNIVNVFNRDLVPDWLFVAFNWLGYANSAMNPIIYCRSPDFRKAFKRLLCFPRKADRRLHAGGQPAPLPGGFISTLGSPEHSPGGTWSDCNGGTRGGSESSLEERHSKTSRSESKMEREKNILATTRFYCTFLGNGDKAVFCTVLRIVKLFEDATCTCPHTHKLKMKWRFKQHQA

For `Cc1ccc(OCC(O)C(C)NC(C)C)c2c1CCC2` (stereo not shown) [ICI 118551], the “effect on cAMP accumulation by m23” value was “does not depress the cAMP accumulation”.
